Biological target: actin filaments (UniProt P68135 1-377)
Experiment: co-sedimentation

Kd: 10 µM
B1: myosin V 1IQ monomer (domain or fragment)
chain: MAASELYTKYARVWIPDPEEVWKSAELLKDYKPGDKVLQLRLEEGKDLEYCLDPKTKELPPLRNPDILVGENDLTALSYLHEPAVLHNLKVRFIDSKLIYTYCGIVLVAINPYEQLPIYGEDIINAYSGQNMGDMDPHIFAVAEEAYKQMARDERNQSIIVSGESGAGKTVSAKYAMRYFATVSGSASEANVEEKVLASNPIMESIGNAKTTRNDNSSRFGKYIEIGFDKRYRIIGANMRTYLLEKSRVVFQAEEERNYHIFYQLCASAALPEFKTLRLGNANYFHYTKQGGSPVIDGIDDAKEMVNTRQACTLLGISDSYQMGIFRILAGILHLGNVEFASRDSDSCAIPPKHDPLTIFCDLMGVDYEEMAHWLCHRKLATATETYIKPISKLHAINARDALAKHIYANLFNWIVDHVNKALHSTVKQHSFIGVLDIYGFETFEINSFEQFCINYANEKLQQQFNMHVFKLEQEEYMKEQIPWTLIDFYDNQPCINLIEAKMGVLDLLDEECKMPKGSDDTWAQKLYNTHLNKCALFEKPRLSNKAFIIKHFADKVEYQCEGFLEKNKDTVYEEQIKVLKSSKKFKLLPELFQDEEKAISPTSATPSGRVPLSRTPVKPAKARPGQTSKEHKKTVGHQFRNSLHLLMETLNATTPHYVRCIKPNDFKFPFTFDEKRAVQQLRACGVLETIRISAAGFPSRWTYQEFFSRYRVLMKQKDVLSDRKQTCKNVLEKLILDKDKYQFGKTKIFFRAGQVAYLEKIRADKLRAACIRIQKTIRGWLMRKKYMRMRR
